In article doi:10.1101/313791 (bioRxiv, 2018):

B1: HDA19-EGFP (HDA19pro:HDA19-EGFP) (enzyme, Arabidopsis thaliana, UniProt O22446 1-501, looked up)
chain: MDTGGNSLASGPDGVKRKVCYFYDPEVGNYYYGQGHPMKPHRIRMTHALLAHYGLLQHMQVLKPFPARDRDLCRFHADDYVSFLRSITPETQQDQIRQLKRFNVGEDCPVFDGLYSFCQTYAGGSVGGSVKLNHGLCDIAINWAGGLHHAKKCEASGFCYVNDIVLAILELLKQHERVLYVDIDIHHGDGVEEAFYATDRVMTVSFHKFGDYFPGTGHIQDIGYGSGKYYSLNVPLDDGIDDESYHLLFKPIMGKVMEIFRPGAVVLQCGADSLSGDRLGCFNLSIKGHAECVKFMRSFNVPLLLLGGGGYTIRNVARCWCYETGVALGVEVEDKMPEHEYYEYFGPDYTLHVAPSNMENKNSRQMLEEIRNDLLHNLSKLQHAPSVPFQERPPDTETPEVDEDQEDGDKRWDPDSDMDVDDDRKPIPSRVKREAVEPDTKDKDGLKGIMERGKGCEVEVDESGSTKVTGVNPVGVEEASVKMEEEGTNKGGAEQAFPPKT

What was measured:
[1] = target: the molecule itself; experiment: fluorescence correlation spectroscopy
[2] = target: B1; experiment: fluorescence correlation spectroscopy

Binder | stoichiometry N [1] | percent of the complex in a 1:1 ratio [2] [%] | stoichiometry N [2]
B1 | 2 |  | 
SCR-mCherry (SCRpro:SCR-mCherry) (natural protein, Arabidopsis thaliana, UniProt Q9M384 1-653, looked up) MAESGDFNGGQPPPHSPLRTTSSGSSSSNNRGPPPPPPPPLVMVRKRLASEMSSNPDYNNSSRPPRRVSHLLDSNYNTVTPQQPPSLTAAATVSSQPNPPLSVCGFSGLPVFPSDRGGRNVMMSVQPMDQDSSSSSASPTVWVDAIIRDLIHSSTSVSIPQLIQNVRDIIFPCNPNLGALLEYRLRSLMLLDPSSSSDPSPQTFEPLYQISNNPSPPQQQQQHQQQQQQHKPPPPPIQQQERENSSTDAPPQPETVTATVPAVQTNTAEALRERKEEIKRQKQDEEGLHLLTLLLQCAEAVSADNLEEANKLLLEISQLSTPYGTSAQRVAAYFSEAMSARLLNSCLGIYAALPSRWMPQTHSLKMVSAFQVFNGISPLVKFSHFTANQAIQEAFEKEDSVHIIDLDIMQGLQWPGLFHILASRPGGPPHVRLTGLGTSMEALQATGKRLSDFADKLGLPFEFCPLAEKVGNLDTERLNVRKREAVAVHWLQHSLYDVTGSDAHTLWLLQRLAPKVVTVVEQDLSHAGSFLGRFVEAIHYYSALFDSLGASYGEESEERHVVEQQLLSKEIRNVLAVGGPSRSGEVKFESWREKMQQCGFKGISLAGNAATQATLLLGMFPSDGYTLVDDNGTLKLGWKDLSLLTASAWTPRS |  | 98.8 | 1 ratio (1:1)
